Experimental data: PMC6517402 (Scientific Reports, 2019)

Target: the molecule itself
Test: crystal structure; X-ray, 1.85 Å, SAD phasing with SeMet protein, then molecular replacement into the wild-type crystal; three molecules in the asymmetric unit

B1: ORF212 tailspike protein (TSP3) of E. coli O157:H7 phage CBA120 (enzyme, UniProt G3M191 1-627, looked up)
chain: MISQFNQPRGSTSIEVNKQSIARNFGVKEDEVIYFTAGIDLSGFKVIYDESTQRAYSLPFGIVSGTTAISLDERAILTHSAGSVDLGELAVSREEYVTLPGSFNFGHTINVKNELLVHDDKKYRWDGSLPKVVAAGSTPDSSGGVGLGAWLSVGDAALRAELNTKVSDGTFPATIKYKYGLPSVIDGAIYRTVQDKLDDFVFLEDFGGKDDAGSTDNSIAFRKAFASGARKIRLRGSGVYGMATRDIELPAKYEIIGNAKNPEIKYLGTDTSFTMFTLTGSGPASNQWKQGGMFRDLIISSDVKINWMLGRHVQNLDYDRVFFYNSATVLNNYHYVNFTRCERWGSAFIGRADLNTIQFISESPKFHLCFSSGSPIDVWDTADLAITKCTMFAGDYAVRTRVTQKQVTAPDLFAGYPVLITCSVFDAVRGHAWDLEGSVYSTITGNLVSAGRDTNSHGAYIKGGRSLSLTGNVFTYCGNYGLVLEDVQQSGFVGNVFNGNKTGGLGTLACKDLSIVGGSMGTTYVRGGYYTQPVGYSDISSNSTGILLSGVAFDEALTTKVYLDTSITTRNKVINCSGVPDTIARGSTANRPANPQASYQYYDTTLGIPIWWNSVSGTWKNAAGADV
notes: also called CBA120 TSP3; wild-type TSP3
stoichiometry N: 3
